Article PMC11098746 (2024)
No end group written: not given here.

B1: ADP347 (protein)
chain: MAATLGPLGSWQQWRRCLSARDGSRMLLLLLLLGSGQGPQQVGAGQTFEYLKREHSLSKPYQGVGTGSSSLWNLMGNAMVMTQYIRLTPDMQSKQGALWNRVPCFLRDWELQVHFKIHGQGKKNLHGDGLAIWYTKDRMQPGPVFGNMDKFVGLGVFVDTYPNEEKQQERVFPYISAMVNNGSLSYDHERDGRPTELGGCTAIVRNLHYDTFLVIRYVKRHLTIMMDIDGKHEWRDCIEVPGVRLPRGYYFGTSSITGDLSDNHDVISLKLFELTVERTPEEEKLHRDVFLPSVDNMKLPEMTAPLPPLSGLA
modifications: bait human Fc-tagged dimer
B2: ADP345 (protein)
chain: MALLAGGLSRGLGSHPAAAGRDAVVFVWLLLSTWCTAPARAIQVTVSNPYHVVILFQPVTLPCTYQMTSTPTQPIVIWKYKSFCRDRIADAFSPASVDNQLNAQLAAGNPGYNPYVECQDSVRTVRVVATKQGNAVTLGDYYQGRRITITGNADLTFDQTAWGDSGVYYCSVVSAQDLQGNNEAYAELIVLGRTSGVAELLPGFQAGP
modifications: bait human Fc-tagged dimer
B3: ADP312 (protein)
chain: MALDRPGEGATMLKTFTVLLFCIRMSLGMTSIVMDPQPELWIESNYPQAPWENITLWCRSPSRISSKFLLLKDKTQMTWIRPSHKTFQVSFLIGALTESNAGLYRCCYWKETGWSKPSKVLELEAPGQLPKPIFWIQAETPALPGCNVNILCHGWLQDLVFMLFKEGYAEPVDYQVPTGTMAIFSIDNLTPEDEGVYICRTHIQMLPTLWSEPSNPLKLVVAGLYPKPTLTAHPGPIMAPGESLNLRCQGPIYGMTFALMRVEDLEKSFYHKKTIKNEANFFFQSLKIQDTGHYLCFYYDASYRGSLLSDVLKIWVTDTFPKTWLLARPSAVVQMGQNVSLRCRGPVDGVGLALYKKGEDKPLQFLDATSIDDNTSFFLNNVTYSDTGIYSCHYLLTWKTSIRMPSHNTVELMVVDKPPKPSLSAWPSTVFKLGKAITLQCRVSHPVLEFSLEWEERETFQKFSVNGDFIISNVDGKGTGTYSCSYRVETHPNIWSHRSEPLKLMGPAGYLTWNYVLN
modifications: bait human Fc-tagged dimer
B4: ADP159 (protein)
chain: MAALRPTLLPPSLPLLLLLMLGMGCWAREVLVPEGPLYRVAGTAVSISCNVTGYEGPAQQNFEWFLYRPEAPDTALGIVSTKDTQFSYAVFKSRVVAGEVQVQRLQGDAVVLKIARLQAQDAGIYECHTPSTDTRYLGSYSGKVELRVLPDVLQVSAAPPGPRGRQAPTSPPRMTVHEGQELALGCLARTSTQKHTHLAVSFGRSVPEAPVGRSTLQEVVGIRSDLAVEAGAPYAERLAAGELRLGKEGTDRYRMVVGGAQAGDAGTYHCTAAEWIQDPDGSWAQIAEKRAVLAHVDVQTLSSQLAVTVGPGERRIGPGEPLELLCNVSGALPPAGRHAAYSVGWEMAPAGAPGPGRLVAQLDTEGVGSLGPGYEGRHIAMEKVASRTYRLRLEAARPGDAGTYRCLAKAYVRGSGTRLREAASARSRPLPVHVREEGVVLEAVAWLAGGTVYRGETASLLCNISVRGGPPGLRLAASWWVERPEDGELSSVPAQLVGGVGQDGVAELGVRPGGGPVSVELVGPRSHRLRLHSLGPEDEGVYHCAPSAWVQHADYSWYQAGSARSGPVTVYPYMHALDT
modifications: bait human Fc-tagged dimer
B5: ADP281 (protein)
chain: SIYEMVVDVLFLCFAIDTKYNDGSPGREFYMDKVLMEFVENSRKAMKEAGKGGVADSRELKPMASG
modifications: also: human Fc-tagged dimer
B6: ADP264 (protein)
chain: GRFSLFGLGGEPGGGAAGPAAAADGGTVDLREMLAVSVLAAVRGGDEVRRVRESNVLHEKSKGKTREGAEDKMTSGDVLSNRKMFYLLKTAFPSVQINTEEHVDAADQEVILWDHKIPEDILKEVTTPKEVPAESVTVWIDPLDATQEYTEDLRKYVTTMVCVAVNGKPMLGVIHKPFSEYTAWAMVDGGSNVKARSSYNEKTPRIVVSRSHSGMVKQVALQTFGNQTTIIPAGGAGYKVLALLDVPDKSQEKADLYIHVTYIKKWDICAGNAILKALGGHMTTLSGEEISYTGSDGIEGGLLASIRMNHQALVRKLPDLEKTGHK
modifications: bait human Fc-tagged dimer
B7: ADP109 (protein)
chain: MGIQGGSVLFGLLLVLAVFCHSGHSLQCYNCPNPTADCKTAVNCSSDFDACLITKAGLQVYNKCWKFEHCNFNDVTTRLRENELTYYCCKKDLCNFNEQLEN
modifications: bait human Fc-tagged dimer
B8: ADP135 (protein)
chain: MTPPRLFWVWLLVAGTQGVNDGDMRLADGGATNQGRVEIFYRGQWGTVCDNLWDLTDASVVCRALGFENATQALGRAAFGQGSGPIMLDEVQCTGTEASLADCKSLGWLKSNCRHERDAGVVCTNETRSTHTLDLSRELSEALGQIFDSQRGCDLSISVNVQGEDALGFCGHTVILTANLEAQALWKEPGSNVTMSVDAECVPMVRDLLRYFYSRRIDITLSSVKCFHKLASAYGARQLQGYCASLFAILLPQDPSFQMPLDLYAYAVATGDALLEKLCLQFLAWNFEALTQAEAWPSVPTDLLQLLLPRSDLAVPSELALLKAVDTWSWGERASHEEVEGLVEKIRFPMMLPEELFELQFNLSLYWSHEALFQKKTLQALEFHTVPFQLLARYKGLNLTEDTYKPRIYTSPTWSAFVTDSSWSARKSQLVYQSRRGPLVKYSSDYFQAPSDYRYYPYQSFQTPQHPSFLFQDKRVSWSLVYLPTIQSCWNYGFSCSSDELPVLGLTKSGGSDRTIAYENKALMLCEGLFVADVTDFEGWKAAIPSALDTNSSKSTSSFPCPAGHFNGFRTVIRPFYLTNSSGVD
modifications: bait human Fc-tagged dimer
B9: ADP131 (protein)
chain: MVRMVSWSFHKLKTMKHLLLLLLCVFLVKSQGVNDNEEGFFSARGHRPLDKKREEAPSLRPAPPPISGGGYRARPAKAAATQKKVERKAPDAGGCLHADPDLGVLCPTGCQLQEALLQQERPIRNSVDELNNNVEAVSQTSSSSFQYMYLLKDLWQKRQKQVKDNENVVNEYSSELEKHQLYIDETVNSNIPTNLRVLRSILENLRSKIQKLESDVSAQMEYCRTPCTVSCNIPVVSGKECEEIIRKGGETSEMYLIQPDSSVKPYRVYCDMNTENGGWTVIQNRQDGSVDFGRKWDPYKQGFGNVATNTDGKNYCGLPGEYWLGNDKISQLTRMGPTELLIEMEDWKGDKVKAHYGGFTVQNEANKYQISVNKYRGTAGNALMDGASQLMGENRTMTIHNGMFFSTYDRDNDGWLTSDPRKQCSKEDGGGWWYNRCHAANPNGRYYWGGQYTWDMAKHGTDDGVVWMNWKGSWYSMRKMSMKIRPFFPQQ
modifications: bait human Fc-tagged dimer
B10: ADP372 (protein)
chain: MARAMAAAWPLLLVALLVLSWPPPGTGDVVVQAPTQVPGFLGDSVTLPCYLQVPNMEVTHVSQLTWARHGESGSMAVFHQTQGPSYSESKRLEFVAARLGAELRNASLRMFGLRVEDEGNYTCLFVTFPQGSRSVDIWLRVLAKPQNTAEVQKVQLTGEPVPMARCVSTGGRPPAQITWHSDLGGMPNTSQVPGFLSGTVTVTSLWILVPSSQVDGKNVTCKVEHESFEKPQLLTVNLTVYYPPEVSISGYDNNWYLGQNEATLTCDARSNPEPTGYNWSTTMGPLPPFAVAQGAQLLIRPVDKPINTTLICNVTNALGARQAELTVQVKEGPPSEHSGISRN
modifications: bait human Fc-tagged dimer
B11: ADP153 (protein)
chain: MAGIWTLLPLVLTSVARLSSKSVNAQVTDINSKGLELRKTVTTVETQNLEGLHHDGQFCHKPCPPGERKARDCTVNGDEPDCVPCQEGKEYTDKAHFSSKCRRCRLCDEGHGLEVEINCTRTQNTKCRCKPNFFCNSTVCEHCDPCTKCEHGIIKECTLTSNTKCKEEGS
modifications: bait human Fc-tagged dimer
B12: ADP388 (protein)
chain: SEGHGGAQLQAELRSLKEAFSNFSSSTLTEVQAISTHGGSVGDKITSLGAKLEKQQQDLKADHDALLFHLKHFPVDLRFVACQMELLHSNGSQRTCCPVNWVEHQGSCYWFSHSGKAWAEAEKYCQLENAHLVVINSWEEQKFIVQHTNPFNTWIGLTDSDGSWKWVDGTDYRHNYKNWAVTQPDNWHGHELGGSEDCVEVQPDGRWNDDFCLQVYRWVCEKRRNATGEVA
modifications: bait human Fc-tagged dimer
B13: ADP149 (protein)
chain: MAWKHVPFLVMISLLSLSPNHLFLAQLIPDPEDVERGNDHGTPIPTSDNDDNSLGYTGSRLRQEDFPPRIVEHPSDLIVSKGEPATLNCKAEGRPTPTIEWYKGGERVETDKDDPRSHRMLLPSGSLFFLRIVHGRKSRPDEGVYVCVARNYLGEAVSHNASLEVAILRDDFRQNPSDVMVAVGEPAVMECQPPRGHPEPTISWKKDGSPLDDKDERITIRGGKLMITYTRKSDAGKYVCVGTNMVGERESEVAELTVLERPSFVKRPSNLAVTVDDSAEFKCEARGDPVPTVRWRKDDGELPKSRYEIRDDHTLKIRKVTAGDMGSYTCVAENMVGKAEASATLTVQEPPHFVVKPRDQVVALGRTVTFQCEATGNPQPAIFWRREGSQNLLFSYQPPQSSSRFSVSQTGDLTITNVQRSDVGYYICQTLNVAGSIITKAYLEVTDVIADRPPPVIRQGPVNQTVAVDGTFVLSCVATGSPVPTILWRKDGVLVSTQDSRIKQLENGVLQIRYAKLGDTGRYTCIASTPSGEATWSAYIEVQEFGVPVQPPRPTDPNLIPSAPSKPEVTDVSRNTVTLSWQPNLNSGATPTSYIIEAFSHASGSSWQTVAENVKTETSAIKGLKPNAIYLFLVRAANAYGISDPSQISDPVKTQDVLPTSQGVDHKQVQRELGNAVLHLHNPTVLSSSSIEVHWTVDQQSQYIQGYKILYRPSGANHGESDWLVFEVRTPAKNSVVIPDLRKGVNYEIKARPFFNEFQGADSEIKFAKTLEEAPSAPPQGVTVSKNDGNGTAILVSWQPPPEDTQNGMVQEYKVWCLGNETRYHINKTVDGSTFSVVIPFLVPGIRYSVEVAASTGAGSGVKSEPQFIQLDAHGNPVSPEDQVSLAQQISDVVKQP
modifications: bait human Fc-tagged dimer
B14: ADP137 (protein)
chain: MAVVGNPRSWSCQWLPILILLLGTGHGPGVEGVTHYKAGDPVILYVNKVGPYHNPQETYHYYQLPVCCPEKIRHKSLSLGEVLDGDRMAESLYEIRFRENVEKRILCHMQLSSAQVEQLRQAIEELYYFEFVVDDLPIRGFVGYMEESGFLPHSHKIGLWTHLDFHLEFHGDRIIFANVSVRDVKPHSLDGLRPDEFLGLTHTYSVRWSETSVERRSDRRRGDDGGFFPRTLEIHWLS
modifications: bait human Fc-tagged dimer
B15: ADP391 (protein)
chain: SSRHVLLQEEVAELQGQVQRTEVARGRLEKRNSDLLLLVDTHKKQIDQKEADYGRLSSRLQAREGLGKRCEDDKVKLQNNISYQMADIHHLKEQLAELRQEFLRQEDQLQDYRKNNTYLVKRLEYESFQCGQQMKELRAQHEENIKKLADQFLEEQKQETQKIQSNDGKELDINNQVVPKNIPKVAENVADKNEEPSSNHIPHGKEQIKRGGDAGMPGIEENDLAKVDDLPPALRKPPISVSQHESHQAISHLPTGQPLSPNMPPDSHINHNGNPGTSKQNPSSPLQRLIPGSNLDSEPRIQTDILKQATKDRVSDFHKLKQSRFFDENESPVDPQHGSKLADYNGDDGNVGEYEADKQAELAYNEEEDGDGGEEDVQGERGPGLHAITMKPTSKFFG
modifications: bait human Fc-tagged dimer

Molecular target: Circumsporozoite protein (CSP) (Plasmodium falciparum (isolate 3D7), UniProt Q7K740)
Test: AVEXIS screen signal:noise (double-corrected)

Circumsporozoite protein (CSP), sequence (Q7K740 19-374): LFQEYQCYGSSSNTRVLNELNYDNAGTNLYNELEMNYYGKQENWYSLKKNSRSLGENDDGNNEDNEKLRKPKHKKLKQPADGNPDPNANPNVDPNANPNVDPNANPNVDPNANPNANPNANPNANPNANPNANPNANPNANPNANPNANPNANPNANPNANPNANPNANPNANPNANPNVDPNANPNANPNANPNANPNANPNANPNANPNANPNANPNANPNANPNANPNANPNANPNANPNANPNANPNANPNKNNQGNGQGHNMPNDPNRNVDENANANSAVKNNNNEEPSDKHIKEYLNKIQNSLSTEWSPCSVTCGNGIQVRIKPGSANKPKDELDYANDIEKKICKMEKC

Binder | binding score
B1 | 0.741
B2 | 0.842
B3 | 0.61
B4 | 0.885
B5 | 0.848
B6 | 0.964
B7 | 1.68
B8 | 0.514
B9 | 0.806
MTGLSMDGGGSPKGDVDPFYYDYETVRN (also: human Fc-tagged dimer) [ADP286] | 1.14
B10 | 1.04
B11 | 1.01
B12 | 0.484
B13 | 0.924
B14 | 0.831
B15 | 0.592
